Results reported in IntAct's records for PubMed 20531392.

B1: Peroxisomal biogenesis factor 19 (Homo sapiens), P40855 (parent)
chain: MAAAEEGCSVGAEADRELEELLESALDDFDKAKPSPAPPSTTTAPDASGPQKRSPGDTAKDALFASQEKFFQELFDSELASQATAEFEKAMKELAEEEPHLVEQFQKLSEAAGRVGSDMTSQQEFTSCLKETLSGLAKNATDLQNSSMSEEELTKAMEGLGMDEGDGEGNILPIMQSIMQNLLSKDVLYPSLKEITEKYPEWLQSHRESLPPEQFEKYQEQHSVMCKICEQFEAETPTDSETTQKARFEMVLDLMQQLQDLGHPPKELAGEMPPGLNFDLDALNLSGPPGASGEQCLIM
B2: Peroxisomal biogenesis factor 19 (Homo sapiens), P40855 (parent)
chain: B1 chain
partner: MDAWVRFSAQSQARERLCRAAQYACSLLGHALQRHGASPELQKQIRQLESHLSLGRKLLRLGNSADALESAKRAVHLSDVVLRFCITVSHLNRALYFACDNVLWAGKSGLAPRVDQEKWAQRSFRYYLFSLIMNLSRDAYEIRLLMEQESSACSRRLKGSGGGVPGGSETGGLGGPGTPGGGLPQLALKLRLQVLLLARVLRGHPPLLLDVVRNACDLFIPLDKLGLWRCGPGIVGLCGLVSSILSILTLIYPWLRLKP

Variants of: B1
Conditions: with pex13_human PEX13, Q92968
pex13_human PEX13, Q92968, sequence (Q92968 whole entry): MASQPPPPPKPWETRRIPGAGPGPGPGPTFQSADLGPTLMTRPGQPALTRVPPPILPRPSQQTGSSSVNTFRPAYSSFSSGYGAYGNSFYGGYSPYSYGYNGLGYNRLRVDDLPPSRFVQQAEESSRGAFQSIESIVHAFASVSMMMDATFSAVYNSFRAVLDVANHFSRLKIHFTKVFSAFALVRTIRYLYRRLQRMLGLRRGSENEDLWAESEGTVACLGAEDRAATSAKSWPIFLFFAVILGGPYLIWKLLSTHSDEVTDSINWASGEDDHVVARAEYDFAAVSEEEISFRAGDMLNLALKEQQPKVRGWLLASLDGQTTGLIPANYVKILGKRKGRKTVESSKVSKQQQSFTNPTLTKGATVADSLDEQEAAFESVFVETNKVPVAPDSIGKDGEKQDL

Row | Variant | effect of a mutation on the interaction
1 | MAAAEEGCSVGAEADRELEELLESALDDFDKAKPSPAPPSTTTAPDASGPQKRSPGDTAKDALFASQEKFFQELFDSELASQATAEFEKAMKELAEEEPHLVEQFQKLSEAAGRVGSDMTSQQEFTSCLKETLSGLAKNATDLQNSSMSEEELTKAMEGLGMDEGDGEGNILPIMQSWMQNLLSKDVLYPSLKEITEKYPEWLQSHRESLPPEQFEKYQEQHSVMCKICEQFEAETPTDSETTQKARFEMVLDLMQQLQDLGHPPKELAGEMPPGLNFDLDALNLSGPPGASGEQCLIM [I178W] | decreasing interaction

Variants of: B1
Conditions: with pex13_human PEX13, Q92968
Remark: another data set of the same source

Row | Variant | effect of a mutation on the interaction
2 | MAAAEEGCSVGAEADRELEELLESALDDFDKAKPSPAPPSTTTAPDASGPQKRSPGDTAKDALFASQEKFFQELFDSELASQATAEFEKAMKELAEEEPHLVEQFQKLSEAAGRVGSDMTSQQEFTSCLKETLSGLAKNATDLQNSSMSEEELTKAMEGLGMDEGDGEGNILPIMQSPMQNLLSKDVLYPSLKEITEKYPEWLQSHRESLPPEQFEKYQEQHSVMCKICEQFEAETPTDSETTQKARFEMVLDLMQQLQDLGHPPKELAGEMPPGLNFDLDALNLSGPPGASGEQCLIM [I178P] | disrupting interaction

Variants of: B1
Conditions: with pex13_human PEX13, Q92968
Remark: another data set of the same source

Row | Variant | effect of a mutation on the interaction
3 | MAAAEEGCSVGAEADRELEELLESALDDFDKAKPSPAPPSTTTAPDASGPQKRSPGDTAKDALFASQEKFFQELFDSELASQATAEFEKAMKELAEEEPHLVEQFQKLSEAAGRVGSDMTSQQEFTSCLKETLSGLAKNATDLQNSSMSEEELTKAMEGLGMDEGDGEGNILPIMQSIMQNWLSKDVLYPSLKEITEKYPEWLQSHRESLPPEQFEKYQEQHSVMCKICEQFEAETPTDSETTQKARFEMVLDLMQQLQDLGHPPKELAGEMPPGLNFDLDALNLSGPPGASGEQCLIM [L182W] | disrupting interaction

Variants of: B1
Conditions: with pex13_human PEX13, Q92968
Remark: another data set of the same source

Row | Variant | effect of a mutation on the interaction
4 | MAAAEEGCSVGAEADRELEELLESALDDFDKAKPSPAPPSTTTAPDASGPQKRSPGDTAKDALFASQEKFFQELFDSELASQATAEFEKAMKELAEEEPHLVEQFQKLSEAAGRVGSDMTSQQEFTSCLKETLSGLAKNATDLQNSSMSEEELTKAMEGLGMDEGDGEGNILPIMQSIMQNPLSKDVLYPSLKEITEKYPEWLQSHRESLPPEQFEKYQEQHSVMCKICEQFEAETPTDSETTQKARFEMVLDLMQQLQDLGHPPKELAGEMPPGLNFDLDALNLSGPPGASGEQCLIM [L182P] | decreasing interaction

Variants of: B2
Conditions: with px11b_human PEX11B

Row | Variant | effect of a mutation on the interaction
5 | MAAAEEGCSVGAEADRELEELLESALDDFDKAKPSPAPPSTTTAPDASGPQKRSPGDTAKDALFASQEKFFQELFDSELASQATAEFEKAMKELAEEEPHLVEQFQKLSEAAGRVGSDMTSQQEFTSCLKETLSGLAKNATDLQNSSMSEEELTKAMEGLGMDEGDGEGNILPIMQSWMQNLLSKDVLYPSLKEITEKYPEWLQSHRESLPPEQFEKYQEQHSVMCKICEQFEAETPTDSETTQKARFEMVLDLMQQLQDLGHPPKELAGEMPPGLNFDLDALNLSGPPGASGEQCLIM [I178W] | disrupting interaction

Variants of: B2
Conditions: with px11b_human PEX11B
Remark: another data set of the same source

Row | Variant | effect of a mutation on the interaction
6 | MAAAEEGCSVGAEADRELEELLESALDDFDKAKPSPAPPSTTTAPDASGPQKRSPGDTAKDALFASQEKFFQELFDSELASQATAEFEKAMKELAEEEPHLVEQFQKLSEAAGRVGSDMTSQQEFTSCLKETLSGLAKNATDLQNSSMSEEELTKAMEGLGMDEGDGEGNILPIMQSIMQNPLSKDVLYPSLKEITEKYPEWLQSHRESLPPEQFEKYQEQHSVMCKICEQFEAETPTDSETTQKARFEMVLDLMQQLQDLGHPPKELAGEMPPGLNFDLDALNLSGPPGASGEQCLIM [L182P] | disrupting interaction
